Starred links: 1 amine or outer side, 2 acyl side, 3 side chain; linkers in the order of their positions; H or OH if unused. Non-standard residues stand in square brackets, D forms with d. Groups on a side chain read outwards from the residue. No end group written: not given here. *: point of attachment. C18 diacid = O=C(O)CCCCCCCCCCCCCCCCC(=O)*; γGlu = O=C(O)[C@H](CCC(=O)[*:2])N[*:1]; Palmitoyl = CCCCCCCCCCCCCCCC(=O)*; AEEA = NCCOCCOCC(=O)O; Aib = CC(C)(N)C(=O)O
B1: SEQ ID NO: 115 (peptide)
peptide: IVLSLDVPIKLK([AEEA-AEEA-γGlu-C18 diacid])QILLKQERQK[Aib]QREQAEKNKQILERV-NH2
modifications: N-terminus assumed
SMILES: CC[C@H](C)[C@H](N)C(=O)N[C@H](C(=O)N[C@@H](CC(C)C)C(=O)N[C@@H](CO)C(=O)N[C@@H](CC(C)C)C(=O)N[C@@H](CC(=O)O)C(=O)N[C@H](C(=O)N1CCC[C@H]1C(=O)N[C@H](C(=O)N[C@@H](CCCCN)C(=O)N[C@@H](CC(C)C)C(=O)N[C@@H](CCCCNC(=O)COCCOCCNC(=O)COCCOCCNC(=O)CC[C@H](NC(=O)CCCCCCCCCCCCCCCCC(=O)O)C(=O)O)C(=O)N[C@@H](CCC(N)=O)C(=O)N[C@H](C(=O)N[C@@H](CC(C)C)C(=O)N[C@@H](CC(C)C)C(=O)N[C@@H](CCCCN)C(=O)N[C@@H](CCC(N)=O)C(=O)N[C@@H](CCC(=O)O)C(=O)N[C@@H](CCCNC(=N)N)C(=O)N[C@@H](CCC(N)=O)C(=O)N[C@@H](CCCCN)C(=O)NC(C)(C)C(=O)N[C@@H](CCC(N)=O)C(=O)N[C@@H](CCCNC(=N)N)C(=O)N[C@@H](CCC(=O)O)C(=O)N[C@@H](CCC(N)=O)C(=O)N[C@@H](C)C(=O)N[C@@H](CCC(=O)O)C(=O)N[C@@H](CCCCN)C(=O)N[C@@H](CC(N)=O)C(=O)N[C@@H](CCCCN)C(=O)N[C@@H](CCC(N)=O)C(=O)N[C@H](C(=O)N[C@@H](CC(C)C)C(=O)N[C@@H](CCC(=O)O)C(=O)N[C@@H](CCCNC(=N)N)C(=O)N[C@H](C(N)=O)C(C)C)[C@@H](C)CC)[C@@H](C)CC)[C@@H](C)CC)C(C)C)C(C)C
B2: SEQ ID NO: 8 (peptide)
peptide: FTLSLDVPTKIK([γGlu-Palmitoyl])QKLLKQEKQKKQRQKAKTAAQILAQV-NH2
modifications: N-terminus assumed
SMILES: CCCCCCCCCCCCCCCC(=O)N[C@@H](CCC(=O)NCCCC[C@H](NC(=O)[C@@H](NC(=O)[C@H](CCCCN)NC(=O)[C@@H](NC(=O)[C@@H]1CCCN1C(=O)[C@@H](NC(=O)[C@H](CC(=O)O)NC(=O)[C@H](CC(C)C)NC(=O)[C@H](CO)NC(=O)[C@H](CC(C)C)NC(=O)[C@@H](NC(=O)[C@@H](N)Cc1ccccc1)[C@@H](C)O)C(C)C)[C@@H](C)O)[C@@H](C)CC)C(=O)N[C@@H](CCC(N)=O)C(=O)N[C@@H](CCCCN)C(=O)N[C@@H](CC(C)C)C(=O)N[C@@H](CC(C)C)C(=O)N[C@@H](CCCCN)C(=O)N[C@@H](CCC(N)=O)C(=O)N[C@@H](CCC(=O)O)C(=O)N[C@@H](CCCCN)C(=O)N[C@@H](CCC(N)=O)C(=O)N[C@@H](CCCCN)C(=O)N[C@@H](CCCCN)C(=O)N[C@@H](CCC(N)=O)C(=O)N[C@@H](CCCNC(=N)N)C(=O)N[C@@H](CCC(N)=O)C(=O)N[C@@H](CCCCN)C(=O)N[C@@H](C)C(=O)N[C@@H](CCCCN)C(=O)N[C@H](C(=O)N[C@@H](C)C(=O)N[C@@H](C)C(=O)N[C@@H](CCC(N)=O)C(=O)N[C@H](C(=O)N[C@@H](CC(C)C)C(=O)N[C@@H](C)C(=O)N[C@@H](CCC(N)=O)C(=O)N[C@H](C(N)=O)C(C)C)[C@@H](C)CC)[C@@H](C)O)C(=O)O

Target: human corticotropin-releasing factor 2α (CRF2 α receptor) (human), Q13324
Sequence (Q13324 20-411): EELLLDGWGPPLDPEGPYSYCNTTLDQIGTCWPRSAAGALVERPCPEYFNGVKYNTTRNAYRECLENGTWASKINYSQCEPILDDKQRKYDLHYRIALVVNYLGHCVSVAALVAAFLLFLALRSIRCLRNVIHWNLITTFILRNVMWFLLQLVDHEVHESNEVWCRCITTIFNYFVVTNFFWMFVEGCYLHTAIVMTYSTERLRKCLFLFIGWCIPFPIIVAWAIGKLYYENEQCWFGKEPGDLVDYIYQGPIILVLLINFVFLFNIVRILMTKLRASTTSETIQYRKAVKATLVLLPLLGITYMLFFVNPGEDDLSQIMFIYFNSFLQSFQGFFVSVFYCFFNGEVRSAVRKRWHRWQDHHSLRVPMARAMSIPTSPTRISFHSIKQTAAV
Assay: cell-based or functional assay

Binder	EC50 [nM], 0% HSA	EC50 [nM], 0.1% HSA
B1	2.77 nM	
B2	0.2 nM	
IVLSLDVPIKLK([AEEA-AEEA-γGlu-C18 diacid])QILLKQERQKKQRQQAETNKQILAQV-NH2 [SEQ ID NO: 113]	0.1 nM	11.9 nM
IVLSLDVPIKLK([AEEA-AEEA-γGlu-C18 diacid])QILLEQARQK[Aib]QRAQAETNKRILERV-NH2 [SEQ ID NO: 114]	0.16 nM	12.4 nM
